Tests used:
galectins = details: in vitro; cited from earlier work
[1] = target: T1, native human galectin-1 (hGal1) (Homo sapiens, UniProt P09382); test: Thermofluor thermal shift assay (TSA), native galectin-1; format: binding; details: 5 μM protein
T1 construct: 42; made in house; host or cells: E. coli strain M-15
Method: In an attempt to screen among the selected aptamers that better interact with hGal1, differential scanning fluorimetry (Termofluor) was used to characterize their binding to its target. Among all the selected aptamers, SEQ ID NO.: 4 seemed to have a more intense effect on hGal1 thermoshift and so was chosen for further analysis. The selected aptamer had its interaction evaluated with native and alkylated galectin-1. […] The respective thermal displacements were evaluated as a function of an increasing concentration of SEQ ID NO.: 4 (FIG. 1).
Thermofluor experiments were performed on an Mx3005 RT-PCR (Agilent Technologies) using the SYPRO® Orange dye (492/610 nm) (Invitrogen) as fluorescent probe. The purified (native and alkylated) protein samples were incubated for 30 min with increasing concentration of the molecules of interest, centrifuged, and submitted to the thermal denaturation assay, totalizing four distinct experiments. In a 96-well plate (Agilent Technologies) 20 μl of the reaction containing 5 μM of each protein in buffer PBS 1× and 5× SYPRO® Orange were heated from 25° C. to 95° C. at a rate of 1° C./min. The experimental result was processed as in the protocol previously described and the melting temperature was obtained using GraphPad Prism software (www.graphpad.com).

[2] = test system: NHF human foreskin skin fibroblasts; test: in vitro
Source text: (§1) The XLSTAT software was used to determine the IC50, TGI and LC50 values using the four-parameter logistic curve equation.

[3] = test system: SK-BR-3 human breast adenocarcinoma; test: SRB cell proliferation (cytotoxicity) assay, SK-BR-3
Source text: as §1

[4] = test system: seven cell lines of solid human tumors; test: SRB antiproliferative assay, panel of tumor lines; format: cell-based; details: read-out: 50% growth inhibitory concentrations (IC50); all tumor cell lines assessed
Source text: as §1

[5] = test system: DU-145 human prostate carcinoma cell line; test: SRB cell proliferation (cytotoxicity) assay, DU-145
Source text: as §1

[6] = test system: HCT 116 human colorectal carcinoma; test: SRB cell proliferation (cytotoxicity) assay, HCT 116
Source text: as §1

[7] = test system: MCF-7 human breast adenocarcinoma cell line; test: SRB cell proliferation (cytotoxicity) assay, MCF-7
Source text: as §1

OVCAR-3 cell line = test: Synergism test with cisplatin, OVCAR-3; details: cisplatin 3 μM
Source text: For the analysis of cell proliferation, the non-clonogenic method of sulforodamine B (SRB) was used, a protein dye that binds to the basic amino acid residues of cell proteins that were viable at the time of the fixation process. Therefore, the greater the amount of SRB bound per compartment, the less the antiproliferative activity of the item under study.

[8] = test system: HT-29 human colorectal adenocarcinoma; test: SRB cell proliferation (cytotoxicity) assay, HT-29
Source text: as §1

[9] = test system: A-375 human malignant melanoma; test: SRB cell proliferation (cytotoxicity) assay, A-375
Source text: as §1

[10] = test system: OVCAR-3 human ovarian adenocarcinoma cell line; test: SRB cell proliferation (cytotoxicity) assay, OVCAR-3
Source text: as §1

[11] = target: T2, hGal1-induced hemagglutination of red blood cells (Homo sapiens, UniProt P09382); test: Hemagglutination inhibition assay, native hGal1; format: cell-based; details: native Gal1 5 μM
T2 construct: 42; made in house; host or cells: E. coli strain M-15
Method: Hemagglutination Inhibition Assay
Hemagglutination assay was adopted to assess the capacity of SEQ ID NO.: 4 in inhibiting the lectin cross-linking aggregation of red blood cells (RBC), as previously described. Briefly, using a 96-well microplates appropriate amounts of 5 μM hGal1 were blended with 50 μL of aptamer in an increasing concentrations manner (0-40 μM) in PBS 1× buffer (pH 7.4). Following, 50 μL of 3% purified type B+ RBC in PBS. After 2 h of room temperature incubation, the plate was photographed and the hemagglutination area was estimated by area calculator Sketchandcalc™ and the results were expressed as relative agglutination.

T2 sequence (P09382 2-135): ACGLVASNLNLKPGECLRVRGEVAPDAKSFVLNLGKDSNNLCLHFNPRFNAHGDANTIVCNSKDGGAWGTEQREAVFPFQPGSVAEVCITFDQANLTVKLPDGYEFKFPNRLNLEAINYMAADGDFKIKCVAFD
T1 sequence (P09382 2-135): as above

1-methyl derivative of LacNac
Kd (galectins): 70 µM

B1: AGCTGACACAGCAGGTTGGTGCCAACAAGAAAAGAAACCGTTACAGAAGACACTACAGAATAAGTGAAAAGCCGAGTCGAGCAATCTCGAAAT (nucleic acid)
DNA: AGCTGACACAGCAGGTTGGTGCCAACAAGAAAAGAAACCGTTACAGAAGACACTACAGAATAAGTGAAAAGCCGAGTCGAGCAATCTCGAAAT
modifications: chemistry not given here
variation of denaturation temperature (Tm) of native hGal1 [1]: greater variation
Relative viability (%) of test items ([2]; 0.781 µM): 103.3%
Relative viability (%) of test items ([2]; 1.562 µM): 101.8%
Relative viability (%) of test items ([2]; 3.125 µM): 93.5%
Relative viability (%) of test items ([2]; 6.25 µM): 96.1%
Relative viability (%) of test items ([2]; 12.5 µM): 101.4%
Relative viability (%) of test items ([2]; 25 µM): 66.8%
Relative viability (%) of test items ([2]; 50 µM): 24.3%
Relative viability (%) of test items ([2]; 100 µM): −32.9%
TGI: Concentration for total inhibition of cell growth ([2]; NHF): 64.820 µM
IC50 ([2]; read-out: IC50: Concentration to inhibit 50% of cell growth, NHF): 35.7 µM
CC50 ([2]; read-out: LC50: Concentration for 50% cell death, NHF): > 100 µM
Relative cell viability (%) of test items ([3]; 0.781 µM): 98.0%
Relative cell viability (%) of test items ([3]; 1.562 µM): 99.1%
Relative cell viability (%) of test items ([3]; 3.125 µM): 113.9%
Relative cell viability (%) of test items ([3]; 6.25 µM): 95.4%
Relative cell viability (%) of test items ([3]; 12.5 µM): 90.0%
Relative cell viability (%) of test items ([3]; 25 µM): 50.2%
Relative cell viability (%) of test items ([3]; 50 µM): −8.6%
Relative cell viability (%) of test items ([3]; 100 µM): −66.5%
TGI: Concentration for total inhibition of cell growth ([3]; SK-BR-3): 45.137 µM
IC50 ([3]; read-out: IC50: Concentration to inhibit 50% of cell growth, SK-BR-3): 26 µM
CC50 ([3]; read-out: LC50: Concentration for 50% cell death, SK-BR-3): 78.6 µM
IC50 [4]: < 25 µM
Relative viability (%) of test items ([5]; 0.781 µM): 94.8%
Relative viability (%) of test items ([5]; 1.562 µM): 106.3%
Relative viability (%) of test items ([5]; 3.125 µM): 104.4%
Relative viability (%) of test items ([5]; 6.25 µM): 105.3%
Relative viability (%) of test items ([5]; 12.5 µM): 92.2%
Relative viability (%) of test items ([5]; 25 µM): 72.4%
Relative viability (%) of test items ([5]; 50 µM): 32.5%
Relative viability (%) of test items ([5]; 100 µM): −39.4%
TGI: Concentration for total inhibition of cell growth ([5]; DU-145): 69.568 µM
IC50 ([5]; read-out: IC50: Concentration to inhibit 50% of cell growth, DU-145): 39.3 µM
CC50 ([5]; read-out: LC50: Concentration for 50% cell death, DU-145): > 100 µM
Relative cell viability (%) of test items ([6]; 0.781 µM): 95.9%
Relative cell viability (%) of test items ([6]; 1.562 µM): 97.5%
Relative cell viability (%) of test items ([6]; 3.125 µM): 99.9%
Relative cell viability (%) of test items ([6]; 6.25 µM): 96.1%
Relative cell viability (%) of test items ([6]; 12.5 µM): 69.4%
Relative cell viability (%) of test items ([6]; 25 µM): 27.9%
Relative cell viability (%) of test items ([6]; 50 µM): 6.3%
Relative cell viability (%) of test items ([6]; 100 µM): −47.3%
TGI: Concentration for total inhibition of cell growth ([6]; HCT 116): 47.447 µM
IC50 ([6]; read-out: IC50: Concentration to inhibit 50% of cell growth, HCT 116): 20.2 µM
CC50 ([6]; read-out: LC50: Concentration for 50% cell death, HCT 116): > 100 µM
Relative viability (%) of test items ([7]; 0.781 µM): 86.4%
Relative viability (%) of test items ([7]; 1.562 µM): 85.8%
Relative viability (%) of test items ([7]; 3.125 µM): 83.0%
Relative viability (%) of test items ([7]; 6.25 µM): 74.2%
Relative viability (%) of test items ([7]; 12.5 µM): 63.0%
Relative viability (%) of test items ([7]; 25 µM): 47.1%
Relative viability (%) of test items ([7]; 50 µM): 25.6%
Relative viability (%) of test items ([7]; 100 µM): −29.0%
TGI: Concentration for total inhibition of cell growth ([7]; MCF-7): 70.609 µM
IC50 ([7]; read-out: IC50: Concentration to inhibit 50% of cell growth, MCF-7): 24.3 µM
CC50 ([7]; read-out: LC50: Concentration for 50% cell death, MCF-7): > 100 µM
effect on the profile of antiproliferative activity in association with cisplatin (OVCAR-3 cell line): substantially improved
Relative cell viability (%) of test items ([8]; 0.781 µM): 90.8%
Relative cell viability (%) of test items ([8]; 1.562 µM): 93.7%
Relative cell viability (%) of test items ([8]; 3.125 µM): 103.0%
Relative cell viability (%) of test items ([8]; 6.25 µM): 94.2%
Relative cell viability (%) of test items ([8]; 12.5 µM): 78.3%
Relative cell viability (%) of test items ([8]; 25 µM): 32.7%
Relative cell viability (%) of test items ([8]; 50 µM): 15.7%
Relative cell viability (%) of test items ([8]; 100 µM): −71.9%
TGI: Concentration for total inhibition of cell growth ([8]; HT-29): 53.711 µM
IC50 ([8]; read-out: IC50: Concentration to inhibit 50% of cell growth, HT-29): 25.1 µM
CC50 ([8]; read-out: LC50: Concentration for 50% cell death, HT-29): 85.8 µM
Relative cell viability (%) of test items ([9]; 0.781 µM): 92.6%
Relative cell viability (%) of test items ([9]; 1.562 µM): 84.5%
Relative cell viability (%) of test items ([9]; 3.125 µM): 87.7%
Relative cell viability (%) of test items ([9]; 6.25 µM): 74.2%
Relative cell viability (%) of test items ([9]; 12.5 µM): 81.1%
Relative cell viability (%) of test items ([9]; 25 µM): 65.8%
Relative cell viability (%) of test items ([9]; 50 µM): 51.6%
Relative cell viability (%) of test items ([9]; 100 µM): −72.1%
TGI: Concentration for total inhibition of cell growth ([9]; A-375): 74.279 µM
IC50 ([9]; read-out: IC50: Concentration to inhibit 50% of cell growth, A-375): 47.9 µM
CC50 ([9]; read-out: LC50: Concentration for 50% cell death, A-375): 93.1 µM
Relative viability (%) of test items ([10]; 0.781 µM): 79.9%
Relative viability (%) of test items ([10]; 1.562 µM): 90.2%
Relative viability (%) of test items ([10]; 3.125 µM): 77.9%
Relative viability (%) of test items ([10]; 6.25 µM): 59.2%
Relative viability (%) of test items ([10]; 12.5 µM): 34.7%
Relative viability (%) of test items ([10]; 25 µM): 16.9%
Relative viability (%) of test items ([10]; 50 µM): −3.7%
Relative viability (%) of test items ([10]; 100 µM): −51.1%
TGI: Concentration for total inhibition of cell growth ([10]; OVCAR-3): 39.740 µM
IC50 ([10]; read-out: IC50: Concentration to inhibit 50% of cell growth, OVCAR-3): 9.46 µM
CC50 ([10]; read-out: LC50: Concentration for 50% cell death, OVCAR-3): > 100 µM
inhibitory effect on galectin-induced hemagglutination [11]: better effect
